Results reported in paper PMC4931249.

Molecular target: WT BG505 SOSIP.664 gp140 trimer (HIV-1 clade-A BG505)
Assay: negative-stain EM

## WT BG505 SOSIP.664 gp140 trimer (complex)
  stoichiometry N: 3
